For one series, the system named is T1, TrTAL.
T1 construct: gene TAL; codon-optimised synthetic gene in pET32a, E. coli BL21(DE3); purified; tags not described
The series is described as follows: coumaric acid formation at […] nm. The format is biochemical, Tephrocybe rancida. The following applies: Tris-HCl, 40 °C, 30 min; pH 9.5 in table note (buffer pH 8.5 in methods).

The subject of another series is T2, TALclu.
T2 construct: gene TAL; codon-optimised synthetic gene in pET32a, E. coli BL21(DE3) per general method; purified; tags not described
Nature of the series: coumaric acid formation at […] nm. The format is biochemical, Chryseobacterium luteum. The following applies: Tris-HCl, 40 °C, 30 min; pH 9.5 in table note (buffer pH 8.5 in methods).

For a further series, the system named is T3, PpTAL.
T3 construct: gene TAL; codon-optimised synthetic gene in pET32a, E. coli BL21(DE3); purified; tags not described
Nature of the series: coumaric acid formation at […] nm. It is filed as biochemical, Pleurotus pulmonarius. The following applies: Tris-HCl, 40 °C, 30 min; pH 9.5 in table note (buffer pH 8.5 in methods).

Another series relates to T4, LeTAL.
T4 construct: gene TAL; codon-optimised synthetic gene in pET32a, E. coli BL21(DE3); purified; tags not described
Nature of the series: coumaric acid formation at […] nm. As to conditions: Tris-HCl, 40 °C, 30 min; pH 9.5 in table note (buffer pH 8.5 in methods). The format is biochemical, Lentinula edodes.

In series [1] the test system is N[C@@H](Cc1ccc(O)cc1)C(=O)O. Nature of the series: purified protein. The following applies: Tris-HCl, 40 °C, 30 min, pH 9.5 in table note (buffer pH 8.5 in methods).
Series [2] concerns T5, N[C@@H](Cc1ccc(O)cc1)C(=O)O.
T5 construct: full length 693 residues; pET32a, E. coli BL21(DE3); purified; tags not described
Nature of the series: purified protein. The following applies: Tris-HCl, 40 °C, 30 min, pH 9.5 in table note (buffer pH 8.5 in methods). The format is biochemical, Rhodotorula glutinis.

Substrate in series [3]: N[C@@H](Cc1ccc(O)cc1)C(=O)O
Nature of the series: purified protein. It is filed as biochemical, Armillaria solidipes. The following applies: Tris-HCl, 40 °C, 30 min, pH 9.5 in table note (buffer pH 8.5 in methods).

Substrate in series [4]: N[C@@H](Cc1ccc(O)cc1)C(=O)O
The series is described as follows: purified protein. It is filed as biochemical, Rhodotorula glutinis. As to conditions: Tris-HCl, 40 °C, 30 min, pH 9.5 in table note (buffer pH 8.5 in methods).

Usually Km stands for the concentration of substrate that gives half-maximal velocity. As to `N[C@@H](Cc1ccc(O)cc1)C(=O)O` [L-tyrosine], the Km in the series on TrTAL stood at 40 µM; with TALclu it was 50 µM; in the series on PpTAL, 40 µM; with LeTAL, 70 µM.
In general, kcat refers to the maximal rate divided by the concentration of active sites. The kcat/Km is the second-order rate constant that governs catalysis at low substrate concentration. For AaTAL (Aspergillus arachidicola), in series [1], the Km turned out to be 0.03 mM, the kcat was found to be 25.2 s⁻¹ and the kcat/Km is 841000 M⁻¹ s⁻¹.
As to “IsTAL (Ilyonectria sp. MPI-CAGE-AT-0026)”, in series [1], the Km came out at 0.57 mM, the kcat was found to be 120 s⁻¹ and the kcat/Km came to 210000 M⁻¹ s⁻¹.
For PcTAL (Puccinia coronata f. sp. avenae) the same measures were 0.17 mM, 66.6 s⁻¹ and 392000 M⁻¹ s⁻¹.
On to RgTAL (Rhodotorula glutinis; E366H), for which, in series [2], the Km is 0.48 mM, the kcat was found to be 40.3 s⁻¹ and the kcat/Km was 84000 M⁻¹ s⁻¹.
As for RgTAL (Rhodotorula glutinis; E366W), in series [2], the Km amounted to 0.85 mM, the kcat came to 31 s⁻¹ and the kcat/Km was determined as 36500 M⁻¹ s⁻¹.
On the same counts, the results for RgTAL (Rhodotorula glutinis; E587V) are 0.33 mM, 163 s⁻¹ and 494000 M⁻¹ s⁻¹.
On the same counts, the results for RgTAL (Rhodotorula glutinis; I668S) are 3.85 mM, 53.6 s⁻¹ and 13900 M⁻¹ s⁻¹.
With RgTAL (Rhodotorula glutinis; K603P), in series [2], the Km is on record as 1.15 mM, the kcat came out at 52.6 s⁻¹ and the kcat/Km stood at 45700 M⁻¹ s⁻¹.
For RgTAL (Rhodotorula glutinis; Q10Y) the same measures were 0.82 mM, 884 s⁻¹ and 1.08e+06 M⁻¹ s⁻¹.
For RgTAL (Rhodotorula glutinis; Q337C) the same measures were 6.48 mM, 96.8 s⁻¹ and 14900 M⁻¹ s⁻¹.
On the same counts, the results for RgTAL (Rhodotorula glutinis; Q337D) are 0.85 mM, 34.8 s⁻¹ and 40900 M⁻¹ s⁻¹.
Turning to RgTAL (Rhodotorula glutinis; R489T), in series [2], the Km is recorded as 0.71 mM, the kcat came out at 817 s⁻¹ and the kcat/Km was 1.15e+06 M⁻¹ s⁻¹.

B1: AsTAL (Armillaria solidipes) (protein)
chain: MPASVFDDINSETKSGKGVGGVSGAHRTPSLLAKFLDSHKELKSYRNGRPVKVDGHTLSIAAVTAAARYNATVDLDGSPQVKAGVMKSRAVIADKVDNGTSVYGVSTGFGGSADTRTDQPLKLGQALLQHQHAGVLPSSDRTLDVLPLLDPMASTSMPESWVRGAMLVRMNSLIRGHSGVRWELLEKINELLRANITPVVPLRSSISASGDLSPLSYVAGTLVANPSIRVFDGPKKFGARKMVSSKDALASHGIQPISLVSKEGLGILNGTAFSASVASLALNDAVHLALLAQICTALGTEALSGTLGNYAPFIHATARPHPGQVESARHIWNLLRGSKLATTHEEEVSINQDKYSLRQDRYPLRTAPQFLGPQIEDILSALSTVIQECNSTTDNPLIDGETGEVHHGGNFQAMAVSNAMEKTRLALHHIGRLLFAQSTELVNPVMNHGLPPSLAASDPSLNYHGKGVDIATAAYVAELGYLAGPVTTHIQSAEMHNQAVNSLALISARATVNALEVLTMLMSSYLYLLCQAVDLRALRREFNTGLKSILSEELSAILGSQLSSQEIDISVSSMWGVVQTTLDKTTTMDAVDQMREVATACIPALIETVSRTNAINNALSSISQFRTNVASKATKLMAELRSSYLLGGRGPAPAGPYLGKTRAVYEYIRITLGVKMHGIENLGSFPNGLGVDDVTIGQNITAIFEAIRDGNFQDAVADLFEVLPHVKL
notes: codon-optimised synthetic gene in pET32a, E. coli BL21(DE3); purified; tags not described
Consider B1, for which, in the series “purified protein [3]”, the Km was 0.54 mM, the kcat stood at 449 s⁻¹ and the catalytic efficiency (kcat/Km) is 831000 M⁻¹ s⁻¹.

B2: RgTAL (Rhodotorula glutinis) (protein)
chain: MAPRPTSQSQARTCPTTQVTQVDIVEKMLAAPTDSTLELDGYSLNLGDVVSAARKGRPVRVKDSDEIRSKIDKSVEFLRSQLSMSVYGVTTGFGGSADTRTEDAISLQKALLEHQLCGVLPSSFDSFRLGRGLENSLPLEVVRGAMTIRVNSLTRGHSAVRLVVLEALTNFLNHGITPIVPLRGTISASGDLSPLSYIAAAISGHPDSKVHVVHEGKEKILYAREAMALFNLEPVVLGPKEGLGLVNGTAVSASMATLALHDAHMLSLLSQSLTAMTVEAMVGHAGSFHPFLHDVTRPHPTQIEVAGNIRKLLEGSRFAVHHEEEVKVKDDEGILRQDRYPLRTSPQWLGPLVSDLIHAHAVLTIEAGQSTTDNPLIDVENKTSHHGGNFQAAAVANTMEKTRLGLAQIGKLNFTQLTEMLNAGMNRGLPSCLAAEDPSLSYHCKGLDIAAAAYTSELGHLANPVTTHVQPAEMANQAVNSLALISARRTTESNDVLSLLLATHLYCVLQAIDLRAIEFEFKKQFGPAIVSLIDQHFGSAMTGSNLRDELVEKVNKTLAKRLEQTNSYDLVPRWHDAFSFAAGTVVEVLSSTSLSLAAVNAWKVAAAESAISLTRQVRETFWSAASTSSPALSYLSPRTQILYAFVREELGVKARRGDVFLGKQEVTIGSNVSKIYEAIKSGRINNVLLKMLA
notes: full length 693 residues; pET32a, E. coli BL21(DE3); purified; tags not described
As for B2, in the series “purified protein [4]”, the Km is on record as 0.36 mM, the kcat is 118 s⁻¹ and the kcat/Km was found to be 327000 M⁻¹ s⁻¹.

Values taken from PMC10713628, “UniKP: a unified framework for the prediction of enzyme kinetic parameters” (Nature Communications, 2023).
